A short description of this data set: protein stability index of a GFP-peptide fusion (GPS, HEK-293T) (PSI 1-6); higher = more stable. The settings on record: c terminus: a fixed tail appended.

± gives the standard deviation.
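Note: 24-mer peptide tiles fused after GFP, lentivirally expressed, FACS-sorted into six equal bins by GFP/DsRed ratio, decoded by Illumina sequencing, PSI is the read-weighted mean bin number.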

On to AAALDYEADGSTNNGIFQINSRRW [SPACA3], for which the protein stability index runs as follows: (treatment: DMSO) 3.64 ± 0.46; (treatment: MLN4924 1 uM, 8 h) 3.76 ± 0.35.

Regarding AALAAMNGRKIMGKEVKVNWATTP [TIA1], the protein stability index turned out to be 2.25 ± 0.32 (treatment: DMSO) and 2.3 ± 0.28 (treatment: MLN4924 1 uM, 8 h).

As to AALSATGPRFLAYFGSFATVGLLW [TMEM175], the protein stability index reads like this: (treatment: DMSO) 3.01 ± 0.25; (treatment: MLN4924 1 uM, 8 h) 3.18 ± 0.72.

Regarding AANSYDLAIKAITSSAKVDMTFEE [FKBP8], the protein stability index was 4.28 ± 0.24 (treatment: DMSO) and 4.36 ± 0.22 (treatment: MLN4924 1 uM, 8 h).

AAPPPPATPIVPVVPPTPPVVKKK [BRD3]: the protein stability index by setting is: (treatment: DMSO) 5.51 ± 0.21; (treatment: MLN4924 1 uM, 8 h) 5.25 ± 0.48.

For the sequence ADYFATFVQREEQLQFLIRYHRFI [CDS1], the protein stability index (treatment: DMSO) came to 2.2 ± 0.54 and the protein stability index (treatment: MLN4924 1 uM, 8 h) turned out to be 2.37 ± 0.27.

With AEALFDFTGNSKLELNFKAGDVIF [NCF4], the protein stability index is, setting by setting: (treatment: DMSO) 2.05 ± 0.29; (treatment: MLN4924 1 uM, 8 h) 2.23 ± 0.27.

For AEGLANGPDVLETDGLQEVPLCSC [EHMT1], the protein stability index (treatment: DMSO) was found to be 4.75 ± 0.2 and the protein stability index (treatment: MLN4924 1 uM, 8 h) turned out to be 5 ± 0.31.

On to AENYLSGGGPGDGGGADTGTGGEE [FBXO33], for which the protein stability index runs as follows: (treatment: DMSO) 5.42 ± 0.31; (treatment: MLN4924 1 uM, 8 h) 5.55 ± 0.23.

Regarding AERYKLERLAEAEKSQLIMQAEAE [FLOT1], the protein stability index reads like this: (treatment: DMSO) 5.29 ± 0.25; (treatment: MLN4924 1 uM, 8 h) 5 ± 0.28.

For the sequence AFCALVHSFFPDAFDYNSLSPTQR [SMTNL2], the protein stability index came out at 2.61 ± 0.56 (treatment: DMSO) and 2.21 ± 0.31 (treatment: MLN4924 1 uM, 8 h).

On to AFLELPHGSGGSGYPAAPPAVPFA [TBX6], for which the protein stability index was determined as 2.55 ± 0.15 (treatment: DMSO) and 2.69 ± 0.39 (treatment: MLN4924 1 uM, 8 h).

As for AFMNQEITKAFHVRKANRIKECLS [RHOBTB1], the protein stability index runs as follows: (treatment: DMSO) 2.41 ± 0.18; (treatment: MLN4924 1 uM, 8 h) 2.53 ± 0.33.

AFREFDRDRDGRITVAELREAVPA [CABP4]: the protein stability index is 4.65 ± 0.37 (treatment: DMSO) and 4.58 ± 0.17 (treatment: MLN4924 1 uM, 8 h).

Regarding AGALLRLPSERLDFSMAEALNQEF [PRPH], the protein stability index (treatment: DMSO) stood at 3.32 ± 0.3 and the protein stability index (treatment: MLN4924 1 uM, 8 h) worked out at 3.52 ± 0.35.

Regarding AGDGDTSNFETYPENDWDTAAPVP [PRKX], the protein stability index is, setting by setting: (treatment: DMSO) 5.33 ± 0.33; (treatment: MLN4924 1 uM, 8 h) 5.14 ± 0.32.

As for AGGATAWGDLLGEDSLAALSSVPS [SNAP91], the protein stability index reads like this: (treatment: DMSO) 3.99 ± 0.25; (treatment: MLN4924 1 uM, 8 h) 3.96 ± 0.11.

AGGGGFGGGSLSGGGGSRSISASS [KRT15]: the protein stability index is, setting by setting: (treatment: DMSO) 3.89 ± 0.3; (treatment: MLN4924 1 uM, 8 h) 4 ± 0.21.

AGGHLAVVELLLAHGADPTHRLKD [ANKRD17]: the protein stability index reads like this: (treatment: DMSO) 1.95 ± 0.18; (treatment: MLN4924 1 uM, 8 h) 2.11 ± 0.32.

Regarding AGIGRTGTFCSLDICLAQLEELGT [PTPN9], the protein stability index (treatment: DMSO) is 2.23 ± 0.24 and the protein stability index (treatment: MLN4924 1 uM, 8 h) stood at 2.62 ± 0.64.

As to AGKSGTSTPTTPGSTAITPGTPPS [MAP2], the protein stability index runs as follows: (treatment: DMSO) 5.11 ± 0.33; (treatment: MLN4924 1 uM, 8 h) 5.11 ± 0.44.

Sequence AGLLPPVPAQKFSALTFLRVDQDK [SMOC2] displayed a protein stability index (treatment: DMSO) of 3.21 ± 0.21 and a protein stability index (treatment: MLN4924 1 uM, 8 h) of 3.3 ± 0.29.

On to AGSIGGLFFAVGIAQYALLGYFIR [SLC22A15], for which the protein stability index reads like this: (treatment: DMSO) 3.35 ± 0.72; (treatment: MLN4924 1 uM, 8 h) 3.4 ± 0.23.

As to AIGVGQVDFNTLKSIGSEPHEDHV [MATN2], the protein stability index stood at 4.67 ± 0.24 (treatment: DMSO) and 4.88 ± 0.054 (treatment: MLN4924 1 uM, 8 h).

For the sequence AILGEQRPRQRQRVYPKCTWLTTP [TCF25], the protein stability index runs as follows: (treatment: DMSO) 2.46 ± 0.38; (treatment: MLN4924 1 uM, 8 h) 2.05 ± 0.27.

Take AKPEALSSPKFREEAAFPGRRVNA [ELOA2]: the protein stability index (treatment: DMSO) was 4.48 ± 0.25 and the protein stability index (treatment: MLN4924 1 uM, 8 h) came to 4.59 ± 0.17.

Take ALKRQLPFRGDEGIFEESFIEERR [SNX12]: the protein stability index reads like this: (treatment: DMSO) 3.8 ± 0.16; (treatment: MLN4924 1 uM, 8 h) 4.15 ± 0.31.

In turn, ALLKFREDEGFVREEEDRALPENE [KCNA4] had a protein stability index (treatment: DMSO) of 5.31 ± 0.32 and a protein stability index (treatment: MLN4924 1 uM, 8 h) of 5.43 ± 0.19.

As to ALQYAGDGSVLLIPRTMADQQARR [NFE2L1], the protein stability index by setting is: (treatment: DMSO) 3.11 ± 0.14; (treatment: MLN4924 1 uM, 8 h) 3.19 ± 0.63.

For the sequence ANHTHTFYGHSHHSHHGHPSHQSH [C10orf62], the protein stability index runs as follows: (treatment: DMSO) 3.51 ± 0.12; (treatment: MLN4924 1 uM, 8 h) 3.46 ± 0.23.

On to APKDSAPQDLAPQVSAHHRSQESL [TBC1D10A], for which the protein stability index is, setting by setting: (treatment: DMSO) 5.36 ± 0.2; (treatment: MLN4924 1 uM, 8 h) 5.38 ± 0.14.

Turning to APQNLTRWTFEKACHPFLLGPPLV [TOR1AIP2], the protein stability index reads like this: (treatment: DMSO) 2.4 ± 0.21; (treatment: MLN4924 1 uM, 8 h) 2.08 ± 0.18.

Sequence AQNREPESVEQLESRIVEQENAIQ [SNX8] had a protein stability index (treatment: DMSO) of 5.54 ± 0.063 and a protein stability index (treatment: MLN4924 1 uM, 8 h) of 5.52 ± 0.19.

As to AQTLAMMLQEQLDAINEEIRMIQE [PPFIA4], the protein stability index was determined as 2.95 ± 0.29 (treatment: DMSO) and 2.7 ± 0.46 (treatment: MLN4924 1 uM, 8 h).

Regarding AQTLLRLSGVQRVESVFFGGGTPS [RSAD1], the protein stability index was 2.43 ± 0.27 (treatment: DMSO) and 2.47 ± 0.3 (treatment: MLN4924 1 uM, 8 h).

Consider ARAFAEKNNLSFIETSALDSTNVE [RAB11B], for which the protein stability index reads like this: (treatment: DMSO) 4.51 ± 0.15; (treatment: MLN4924 1 uM, 8 h) 4.54 ± 0.13.

Values taken from the supplement of paper PMC10567573.
